In the nanobody polyreactivity screen of Harvey et al. (2022):

assay: yeast display, Sf9 membrane polyspecificity reagent, FACS + sequencing; frameworks hold sequencing errors
Summary of the method: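 After 36–48 hours of galactose induction, yeast (Saccharomyces cerevisiae BJ5465) displaying a synthetic nanobody library were stained at 4 °C for 1 hour with 10% biotinylated, detergent-solubilized Sf9 membrane reagent. Streptavidin microbeads enriched the stained cells before FACS sorting into low and high (top ~1%) gates on anti-HA and streptavidin fluorescence. Each clone's polyreactivity label reflects its gate of origin.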

Sequence | polyreactivity (PSR sort gate)
QVQLVESGGGLVQAGGSLRLSCAASGSTFNINAMGWYRQAPGKERELVADITSGGSTNYADSVKGRFTISRDNAKNTVYLQMNSLKPEDTAVYYCNADVLYGDSYRGGYCGQGTQVTVSS | low polyreactivity
QVQLVESGGGLVQAGGSLRLSCAASGSTFNKYAMGWYRQAPGKEREFVAAITSSGGRTYYADSVKGRFTISRDNAKNTVYLQMNSLKPEDTAVYYCAARSYTYTAPIYGYWGQGTQVTVSS | high polyreactivity
QVQLVESGGGLVQAGGSLRLSCAASGSTFNKYTMGWYRQAPGKERELVAAITSGDSTYYADSVKGRFTISRDNAKNTVYLQMNSLKPEDTAVYYCAKSLRAYRHVIYGKPFYSWGQGTQVTVSS | low polyreactivity
QVQLVESGGGLVQAGGSLRLSCAASGSTFNLYAMGWYRQAPGKERELVASISRSGVSTYYADSVKGRFTISRDNAKNTVYLQMNSLKPEDTAVYYCAVDKVLYRLYPGMDYWGQGTQVTVSS | low polyreactivity
QVQLVESGGGLVQAGGSLRLSCAASGSTFNPYAMGWYRQAPGKERELVAAITWSSDDTYYADSVKGRFTISRDNAKNTVYLQMNSLKPEDTAVYYCAATTVTQWYTITVAYGYWGQGTQVTVSS | low polyreactivity
QVQLVESGGGLVQAGGSLRLSCAASGSTFNRYAMGWYRQAPGKERELVAAISWSGTRTYYADSVKGRFTISRDNAKNTVYLQMNSLKPEDTAVYYCAARRLYAGHQYDYWGQGTQVTVSS | high polyreactivity
QVQLVESGGGLVQAGGSLRLSCAASGSTFNSNAMGWYRQAPGKERELVAAINYSGGSTYYADSVKGRFTISRDNAKNTVYLQMNSLKPEDTAVYYCNKVYFDHYLSRVYYWGQVTQVTVSS | high polyreactivity
QVQLVESGGGLVQAGGSLRLSCAASGSTFNSYAMGWYRQAPGKESELVAAITSSGSRTRYADSVKGRFTISRDNAKNTVYLQMNSLKPEDTAVYYCAAVYRLKSGGVWRDSQFGYWGQGTQVTVSS | high polyreactivity
QVQLVESGGGLVQAGGSLRLSCAASGSTFNSYTMGWYRPAPGKERELVAAISWRGTSTYYADSVKGRFTISRDNAKNTVYLQMNSLKPEDTAVFYCAAAGRYRVLTGLVSSWKYWGQGTLVTVSS | high polyreactivity
QVQLVESGGGLVQAGGSLRLSCAASGSTFNTYAMGWYRQAPGKERELVAAITWRGGRTYYADSVKGRFTISRDNAKNTVYLQMNSLKPEDTAVYYCAARRTYYSRKPRFDYWGQGTQVTVSS | high polyreactivity
QVQLVESGGGLVQAGGSLRLSCAASGSTFNTYAMGWYRQAPGKERELVAAITWRGGRTYYADSVKGRFTISRDNAKNTVYLQMNSLKPEDTAVYYCNTLRPRLDGVYGYDYWGQGTQVTVSS | high polyreactivity
QVQLVESGGGLVQAGGSLRLSCAASGSTFNVNAMGWYRQAPGKERELVAAISSDGITNYADSVKRRFTISRDNAKNTVYLQMNSLKPEDTAVYYCNADWTDGDWADMDYWGQGTQVTVSS | low polyreactivity
QVQLVESGGGLVQAGGSLRLSCAASGSTFNWNAMGWYRQAPGKERELVAAITSSGARTRYADSVKGRFTISRDNAKNTVYLQMNSLKPEDTAVYYCAAYVYISPSGYYYWGQGTQVTVSS | high polyreactivity
QVQLVESGGGLVQAGGSLRLSCAASGSTFNYYAMGWDRQAPGTVRELVAAITRNGGRKYYADSVKGRFRLSRDNAKNTVYLQMNSLKPEETAVYYCATDTYSYRSIHDMGYWGQGTQVTVSS | high polyreactivity
QVQLVESGGGLVQAGGSLRLSCAASGSTFNYYAMGWYRQAPGKERELVAAITSSGTSTFYADSVKGRITISRDNAKNTVYLQMNSLKPEDTAVYYCAVDLYWSYFNGALGYRYYYWGQGTQVTVSS | high polyreactivity
QVQLVESGGGLVQAGGSLRLSCAASGSTFPANAMGWYRQAPGKERELVATISWSGGRTYYADSVKGRFTISRDNAKNTVYLQMNSLKPEDTAVYYCAKGYYWLSTYGDSRYGYWGQGTQVTVSS | high polyreactivity

Sequence | polyreactivity (PSR sort gate)
QVQLVESGGGLVQAGGSLRLSCAASGSTFPAYAMGWYRQAPGKERELVAGISSGGRTYYADSVKGRFTISRDNAKNTVYLQMNSLKPEDTAVYYCAAFRFYWQRPDRYYYWGQGTQVTVSS | high polyreactivity
QVQLVESGGGLVQAGGSLRLSCAASGSTFPAYAMGWYRQAPGKERELVATITYTGGSTYYADSVKGRFTISRDNAKNTVYLQMNSLKPEDTAVYYCAADRWDQEDEFDYWGQGTQVTVSS | low polyreactivity
QVQLVESGGGLVQAGGSLRLSCAASGSTFPEYAMGWYRQAPGKERELVAAISKRGGRTYYADSVKGRFTISRDNAKNTVYLQMNSLKPEETAVYYCARDSYPHGRARFDYWGQGTQVTVSS | high polyreactivity
QVQLVESGGGLVQAGGSLRLSCAASGSTFPFYAMGWYRQAPGKERELVAAITSGGSTYADSVKGRFTISRDNAKNTVYLQMNSLNPEDTAVYYCAASWPRWWRFGYWGQGTQVTVSS | low polyreactivity
QVQLVESGGGLVQAGGSLRLSCAASGSTFPGNAMGWYRQAPGKERELVAAITSSGGSTDYADSVKGRFTISRDNAKNTVYLQMNSLKPEDTAVYYCNAKDAEHYERFNYWGQGTQVTVSS | low polyreactivity
QVQLVESGGGLVQAGGSLRLSCAASGSTFPGNAMGWYRQAPGKERELVASISGGGDSTYYADSVKGRFTISRDYAKNTVYLQMNSLKPEDTAVYYCAADYRQEPGYTGYYYWGQGTQVTVSS | low polyreactivity
QVQLVESGGGLVQAGGSLRLSCAASGSTFPGNARGWSRQAPGKLRELVAAIRWSGGRTYYADSVKGRFTISRDNAKNTVYLQMNSLNPEDTAVSYCNAVSDRPIPWYYYWGQGTQVTASS | low polyreactivity
QVQLVESGGGLVQAGGSLRLSCAASGSTFPGYAMGWYRQAPGKERELVASIYTGGSTYYADSVKGRFTISRDNAKNTVYLQMNSLKPEDTAVYYCAADSYNVSSLLYYWGQGTQVTVSS | low polyreactivity
QVQLVESGGGLVQAGGSLRLSCAASGSTFPHYVMGWYRQAPGKERELVAGISWSGGSTYYADSVKGRFTISRDNAKNTVYLQMNSLKPEDTAVYYCAKVLTWRGYRYNYWGQGTQVTVSS | low polyreactivity
QVQLVESGGGLVQAGGSLRLSCAASGSTFPLNAMGWYRQAPGKERELVASINFGGGTTYYADSVKGRFTISRDNAKNTVYLQMNSLKPEDTAVYYCAADVYRGTYRRDYWGQGTQVTVSS | high polyreactivity
QVQLVESGGGLVQAGGSLRLSCAASGSTFPLYAMGLYRQAPGKERELVAAITGGGGRTYYADSVKGRFTISRDIAKNTVYLQMNSLKPEYTAVYYCNAVVYLTNYWYDYWAQGTQVTVSS | low polyreactivity
QVQLVESGGGLVQAGGSLRLSCAASGSTFPLYAMGWYRQAPGKERELVAAITWSGANTYYADSVKGRFTISRDNAKNTVYLQMNSLKPEDTAVYYCAALYYWDQPQLEFSYWGQGTQVTVSS | low polyreactivity
QVQLVESGGGLVQAGGSLRLSCAASGSTFPLYAMGWYRQAPGKERELVATISWGDGSTYYADSVKGRFTISRDTAKNTVYLQMNSLNPEETAVYYCAEDEYPDATTDATDKYYYWGQGTQVTVST | low polyreactivity
QVQLVESGGGLVQAGGSLRLSCAASGSTFPPNAMGWYRQAPGKEGELVADSSDSSTYYADSVKGRFTISRDNAKNTVYLQMNSLKPEDTAVYYCAAADAGLSSKSYGQQYDYWGQGTQVTVSS | low polyreactivity
QVQLVESGGGLVQAGGSLRLSCAASGSTFPPNAMGWYRQAPGKERELVAAISERGGSTYYADSVKGRFTISRDNAKNTVYLLMNSLKPEDTAVYYCAVDYYYLMYWGQGTQVTVSS | low polyreactivity
